From the DeepSol protein solubility set

test: soluble on expression in E. coli; label from the status in PepcDB or PDB records

Sequence	soluble on expression in E. coli
MAQSKLYPVVMAGGSGSRLWPLSRVLYPKQFLCLKGDLTMLQTTICRLNGVECESPVVICNEQHRFIVAEQLRQLNKLTENIILEPAGRNTAPAIALAALAAKRHSPENDPLMLVLAADHVIADEDAFRAAVRNAMPYAEAGKLVTFGIVPDLPETGYGYIRRGEVSAGEQDTVAFEVAQFVEKPNLETAQAYVASGEYYWNSGMFLFRAGRYLEELKKYRPDILDACEKAMSAVDPDLDFIRVDEEAFLACPEESVDYAVMERTADAVVVPMDAGWSDVGSWSSLWEISAHTAEGNVCHGDVINHKTENSYVYAESGLVTTVGVKDLVVVQTKDAVLIADRNAVQDVKKVVEQIKADGRHEHRVHREVYRPWGKYDSIDAGDRYQVKRITVKPGEGLSVQMHHHRAEHWVVVAGTAKVTIDGDIKLLGENESIYIPLGATHCLENPGKIPLDLIEVRSGSYLEEDDVVRFADRYGRV	soluble
MFEELKTFVAVVEYKNFTKAGEYLNLSQPSVSKHIKNLENYFKVVLINRSIKQKTIFITESGQILYKRAKEILNLLNITYHDVSQVSDAITGHLKIGASLTIGEYILPNFLALFSKKYPDIDVEVFIKNTSIVSSHVKDYILDIGLIEGTCSSPSFIQEYFFEDKMVLALPYKSHLLKDFSFDKLQNQKWIVREDGSGTRDYLDMFLSVKEIIPKSMMVFGSNYAVKESVRNNLGITIVSNLVTSLPVLNNELSVIELGSSYNRHFSYIFPKDITLSKAATIFIEELKIFSNLNSI	not soluble
MTPTTTPVSNPDALSTGTQDVHTLKGTLQRLAPGTPLRDGLDRIVRGHTGALIVIGDDENVSSICDGGFEFDVSFAATRLRELCKMDGAVILSSDLERIKRANVQLLPSPTWPTQESGTRHRSAERTALHTGVPVIAVSESQNTITLYVEGKSHMLEQPAALLNRANQALGTMERYRDRLDQVNNRLHLAELHSYVTVIDVVSVIQREEMLRRVGEIIDGDVLELGKDAKEIQIQLSELRGDNDRERESIIADYLVTDGIPADEEIHAALEAISHLDDKALLNPANIARVLGLPPTEEALDEPVTPRGYRTLNRIPRVQKFLMDKLIVEFGNLDALLNASVEDLSAVDGVGSLWARHITDGLGRLS	not soluble
MGSDKIHHHHHHDDHQGIIPLPPVENAFQEKYPDAKNPVFEIEGNYYVVDFNNGGSETTAWFTDQGIWMMEKIDISFAQLPAAVSTAFKQSFYSNWTVDDTYAINRLNMGIVYKIEAEQSNSEVDLYYSQYGNLIKAVDDEINNDAPIVIPKEVSNLMEITFANAELLDIQQNSLGYELDMIDNQIYKVAQLNKDYRWQSTTWAMSEQEVPQIVMQGFESSAYASDKVQSIYTLLNANGTFYLFKVSHNGQDKTITFDVFGNIV	not soluble
MSLAEVSDLAKAIRMEKNLVKEYRDTIGGYFRRFHPEHFVLSRDEFAVEGRKITIESVLAYAFLRADLDFVSAQARKVDPEDMKGSDDAPVNNDEVFGHPSTPSGHGIGGPARFKGGSTASVALISTPTPAPFWHPAAQSTLLCAHVGDSRILLCDTATGLAQPLTSDHHPSSPTESRRLRRYAPAGSMVSGDSFGEERIAGLANSRAFGDMKSKRIGVSAEPELTRVEMGPAQYSFLVLMTDGISGTLSDQEIVDVVKEARTPEDGARNIVKYATEVSNDGDNATCQVVRLGGWERRSEGEGHHHHHH	not soluble
MGSDKIHHHHHHMDISDIAANDYVEVDAEQRLGKVRSLFERENPKGVIVTEAGAYDGVITERQLIQSHIGDDTRVAAMVTDAPKVSRTEDVRETARMLVEGGTKIAPVFEAGSLWGVITEDAILDAVLANLDALDVRDIYTEHVVTVDEDDSMGRVINLLREHGISRLPVVDDAGLLSGIVTRYDIVDFVVRDTEKTTVGDRSGEIERLLDLPVSDEMTSPVKTASFDDSVRDAVDDMLAHDYSGVIVTPDDDERAVGGILTKTDVLRALSYTEEEHLDVQITNIDLLDTLSRQEVRERIENVVAKYGDMDVHHAHVRLSKHKEKLRGTPLIQSQIRLRTNKGQIAGTGEGYGADNSFHVALDKLERNVLELKGIEHDEEYEGQLLRKLNDL	not soluble
MSLARDYRWEGVPLKAYKTDGTHFRAITRQTLLGADEDERALGHQTRYFEIAPGGYSSLERHQHTHTVMILRGQGELILGDALHRIGRHDCIYIAPQTFHQFHASGDEPLGFLCIVDRERDRPRLPDDDELARMRALPGVGPKVRTEGHHHHHH	soluble
MGSDKIHHHHHHMSLANRYEFVYLFDVSNGNPNGDPDAGNLPRLDPETNQGLVTDVCLKRKLRNYVALEKENEPGFAIYMQEKSVLNHQHKRAYEALSLEPEPKKLPKDQAKARELTAWMCKNFFDVRAFGAVMTTEVNAGQVRGPIQLTFATSIDPVVPLEVSITRMAVTNDKDLEKERTMGRKHIVPYGLYRAHGFVSAKLAERAGFGEEDLQLLWRGLINMFEHDRSAARGEMTARKLIAFKHECALGNAPAHRLFDSVRVSRADGAGDSPARGFTDYRVELDRAVLPAGVEVLELL	not soluble
MAQREWVEKDFYQELGVSSDASPEEIKRAYRKLARDLHPDANPGNPAAGERFKAVSEAHNVLSDPAKRKEYDETRRLFAGGGFGGRRFDSGFGGGFGGFGVGGDGAEFNLNDLFDAASRTGGTTIGDLFGGLFGRGGSARPSRPRRGNDLETETELDFVEAAKGVAMPLRLTSPAPCTNCHGSGARPGTSPKVCPTCNGSGVINRNQGAFGFSEPCTDCRGSGSIIEHPCEECKGTGVTTRTRTINVRIPPGVEDGQRIRLAGQGEAGLRGAPSGDLYVTVHVRPDKIFGRDGDDLTVTVPVSFTELALGSTLSVPTLDGTVGVRVPKGTADGRILRVRGRGVPKRSGGSGDLLVTVKVAVPPNLAGAAQEALEAYAAAERSSGFNPRAGWAGNR	soluble
MPILGHNILKIEFEKLQTLGGKIEVSLRPTIRNLRLGEMHLPSGKVKGIEVDVDYIITYSPEVARASIKVRVFYVPRNKEDIDNILDEWEDRKVLPGELVAEVVNFTTSELMPIAMYIAKEMRIPYPVPLPRAVVRGE	soluble
MKYQVLLYYKYTTIEDPEAFAKEHLAFCKSLNLKGRILVATEGINGTLSGTVEETEKYMEAMQADERFKDTFFKIDPAEEMAFRKMFVRPRSELVALNLEEDVDPLETTGKYLEPAEFKEALLDEDTVVIDARNDYEYDLGHFRGAVRPDIRSFRELPQWIRENKEKFMDKKIVTYCTGGIRCEKFSGWLLKEGFEDVAQLHGGIANYGKNPETRGELWDGKMYVFDDRISVEINHVDKKVIGKDWFDGTPCERYINCANPECNRQILTSEENEHKHLGGCSLECSQHPANRYVKKHNLTEAEVAERLALLEAVEVLEHHHHHH	soluble
MDPLSAASKIAGSGLEVQSTRLRIVSENIANARSTGDTPGADPYRRKTVTFGSELDHVSGVERVKVKKLGVDRGDFVHEYDPGNPAADTNGMVKMPNVNVLIEMADMREANRSYDANLQVIRQTRDLVASTIDLLKASQ	not soluble
MSLTNYKVVVLDMDDTLLNSDNVISEETANYLTAIQDEGYYVVLASGRPTEGMIPTARDLKLPEHHSYIISYNGSKTINMTNEEVEVSKSIGKQDFDEIVDYCRDRGFFVLTYHDGQIIYDSEHEYMNIEAELTGLPMKRVDDIKAYIQGDVPKVMGVDYVANITEARIDLNGVFNDNVDATTSKPFFLEFMAKDVSKGNAIKALCHKLGYSVDQVIAFGDSMNDKSMFEVAGLAIAMGNASDELKQYADEVTLDHNENGIPHALKKLLEGHHHHHH	soluble
MNVLIIEDDPMVDFIHRNYLEKLNLFDRIISSDSMKAVQSILTDYAIDLILLDIHITDGNGIQFLEKWRTQHIPCEVIIISAANDGNIIRDGFHLGIIDYLIKPFTFERFQESIQQFVTHREHLANQQLEQAQIDQLKCLTSKKDTKNKQLLEKGLSESTFQWIMENIKVFDQPFTIQELASACHLSHVSVRKYIAYLEENKQLNSQQIFTKVGRPYRVYW	not soluble
MGSDKIHHHHHHMIIFFQLSSPYLLDIYHLDILYGMSFIKAIIKKMSGGVLLKIIDTVPFFLKYYESSLAFLKHYYSQYPKIFNEYFAYHCKDTEERHDQSLAKYPESLLAIQQVRRAIIPIIEEVVEEYGRLYQVTFPTEVNLIVGGYGSNAYTHRQIIPDVTFALERLSPKVEHLQAIVAHDFGHVAHNILSSEAGMDWGKVQWDSPLIWLYQEGAAIHFSRQIAPQLPPAMYFSFDAEGEEWLRFFKENTHAVKSAFAHDYVQETSQSMFQEWFSINGGKRFGYNRLGYLVGDLLFQHFTKTKGERNAITAWKEGRFREEVERWFKR	not soluble
MKKDTDCTEILVGKTASMDGSTIVARNEDGYGPINPIKFIVHEAHDQTNASYTSVTTGVTVPLPDHAYRYTATPQADQSDGQYEEAGINELNVGMSATETTATNARVLGYDPLVHDGVDEEAMVTLVLPYIKSAKEGVQRLGALIEKYGTGESNSIAFNDHDDIWLFETAGGHHWGAVRMPEDTYAIVPNQTVVQEMDLNDTDNFLGASDLVDFVEKYHLNPTPGHFNFREIFGTQSEADAYYNTPRTWYGQKLFNPEIEQNPTDQNMPLFRQPSKKLAIEDVQFFLSSHYNGTPYDPFGTFASGNAREQTRYRSIAMDRNQCSSILQIRNDVPAKQAAIQWIALGFFAYAPYVPFFTNINDTPIDYRNTTSTVSVDNVYWLSKTLSVLIEPHWHEFAETVNAYRDECQSYARGRVAATDAAIAGNPTDFLTKANSETAAEISNRTHALFDTLVKQGLLLSKTTWEKGQNLLEHHHHHH	not soluble
MEYSNFFDDLKSNIIGQYEECKAYRILCESQGYNPSEHLRSEKDITNIPFLATTLFKKSANLFLSLLRVEPDKLDKWTLSSSTSGDPSMVGRRNSDLMQIRKFVLMDDKFYDSASEYNCVFYPEPKVMREYKSVRIMDKPTESYIGNLLGIFDFSENTTFLLKSCGEGFSVDMNSFEEFLKFNNERNNHLSLRGSTLLLYNAVLELKKQGKGPYNLGSRAIVHTGGGGWDGKKGNISIGTKIERYQFVEEISEFLGIPQKNFRDTYSFTENTFPMDGHYSEKLRSYLFHVPTWGRVIIRDVKTLEPLNKPGDRGLVQVLNAYGTSSFAGASILVDDIAEIVANDSCPECKHEGMTFKIVGRVKGSEAKGCGATLDVRGKQKLEHHHHHH	soluble
MAHHHHHHMHVSSAAYTRAYEWQRALNSCTGDFSSSLARCLPLRALCRRPNNVPRTLTHTSKHPHPLLLSHPRLPLSHAARTRAPPPSRCSRSTLMSVPYEEKAFPPL	not soluble
MGSDKIHHHHHHMQRRVPLSPDAAHCSSCMLGHVCVPVGMPANEVEKLDELVKERVRVERGKSLYELDDPLDAVYGVRYGSLKTQLEDSSGQLQITGFHLPGEIVGLDGMIESKHVSSAVALEDSEVCVIRLPEIDRVSTQLPSLQQQFRRLMSREITRSHQMLATVGAMRSEQRLAAFLLNLSQRYAALGYSSTEFVLRMSREEIGNYLGLTLETVSRLFSRFGREGLIRINQREVRLIDLPGLKQLIGQESC	not soluble
MAEHVEIVEMAARDGLQNEKRFVPTADKIALINRLSDCGYARIEATSFVSPKWVPQLADSREVMAGIRRADGVRYSVLVPNMKGYEAAAAAHADEIAVFISASEGFSKANINCTIAESIERLSPVIGAAINDGLAIRGYVSCVVECPYDGPVTPQAVASVTEQLFSLGCHEVSLGDTIGRGTPDTVAAMLDAVLAIAPAHSLAGHYHDTGGRALDNIRVSLEKGLRVFDASVGGLGGSPFAPGAKGNVDTVAVVEMLHEMGFETGLDLDRLRSAGLFTQALRQDKAALEHHHHHH	soluble
LDSANQQASNESIEVRGKIKLGLLPETYEHLQPILFEFQDQYPQVELDIRNINNGFIDMFQQGLDIALHGGMLFDSDIVARKILTLDRCVVASPNYLQTHGTPATLEELSDHQCICFRWPNGNVDNLWHFQEQNVALKPKLISNNIGFIKSSTVLDRGISYIPKLLVKNELESGALVQVLSQYAVTEETGWLLYPQPKTLNQASRLLIEHLCNKIPKLL	soluble
MGENITTRGVDLLGLPTGTRLRLGESALVELTGLRNPCSQLDNYQPGLTAAVLGRDEQGNLIRKAGVMAIVLEDGEVRPGDAIDIQLPPLPHRALEKV	not soluble
